This note sets out measurements from patent US20040087498A1, “Modified factor VII” (Novo Nordisk Health Care AG, priority 1991, published 2004).

Experiment [1] concerns intimal lesion development in femoral arteries. The experiment in a line: Morphometry of intima and media after balloon angioplasty in atherosclerotic rabbits. Conditions: rabbit femoral artery, three weeks post-angioplasty; 1 mg/kg bolus + 50 μg/kg/hr for 3 days. The format is in vivo. As for the experimental part:
DEGR-FVIIa was evaluated for its ability to modulate lesion development following balloon angioplasty in New Zealand White (NZW) atherosclerotic rabbits. This animal model has been well characterized and has proven to be a good model for evaluating anti-thrombotic compounds on vascular lesion development (Gimple et al., Circulation 86:1536-1546 (1992), and Rogosta et al., Circulation 89:1262-1271 (1994)). The animal model used to evaluate DEGR-FVIIa is essentially as described by Ragosta, ibid.
Anesthesia was induced in rabbits with 5 mg/kg xylazine and 35 mg/kg ketamine by intramuscular injection. The proximal femoral arteries were exposed by cutdown below the inguinal ligament with proximal and distal ligatures. The isolated segments were cannulated with 27 gauge needles. A vent was created by needle puncture. The isolated segments were flushed with saline to clear residual blood, and desiccated by air infused at a rate of 80 ml/min for 8 minutes. Following air-drying, the isolated segments were again flushed with saline and the ligatures removed. Hemostasis was maintained with non-occlusive local pressure. The segments were demarcated with metal clips. Local spasm was treated with Xylocaine 1% locally. The day following surgery, the animals were placed on 1% cholesterol and 6% peanut oil diet for one month until balloon angioplasty. […]

The target of experiment [2] is T1, cell-surface tissue factor on rat smooth muscle cells (Rattus norvegicus, UniProt P42533).
T1 construct: endogenous in cells; host or cells: rat vascular smooth muscle cells
T1 sequence (P42533 29-295): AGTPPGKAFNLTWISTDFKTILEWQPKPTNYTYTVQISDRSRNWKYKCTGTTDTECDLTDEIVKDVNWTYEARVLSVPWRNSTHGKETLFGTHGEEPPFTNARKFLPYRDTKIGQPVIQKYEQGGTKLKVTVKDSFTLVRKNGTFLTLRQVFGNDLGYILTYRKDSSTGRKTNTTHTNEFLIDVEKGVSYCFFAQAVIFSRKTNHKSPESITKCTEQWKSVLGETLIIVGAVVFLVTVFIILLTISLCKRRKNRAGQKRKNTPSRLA
The experiment in a line: Dose-dependent cell-surface chromogenic activity on rat smooth muscle cells. It counts as cell-based. How it is done:
Rat vascular smooth muscle cells were plated into 96-well culture dishes at 4,000 cells per well in growth medium supplemented with 1% fetal calf serum (as in Table 4 without 10% fetal calf serum). […] The cells were incubated with the Factor VII mixtures for 2 hours at 37° C. After incubation, the cells were washed and incubated with 50 μl of 200 nM Factor X in tris buffered saline for 5 minutes at room temperature. Each well had 25 μl of 0.5 M EDTA and 25 μl of […] S-2222 (Kabi Pharmacia) added to it, and the plates were incubated for 40 minutes at room temperature. Chromogenic activity was analyzed at 405 nm in a microplate reader as described above.

The test system of experiment [3] is platelet accumulation at sites of arterial thrombosis. The experiment can be described thus: Platelet accumulation on endarterectomized baboon aorta in an extracorporeal shunt. It counts as in vivo. From the text:
A model of aortic endarterectomy was utilized in baboons, essentially as described by Lumsden et al. (Blood 81:1762-1770 (1993)). A section of baboon aorta 1-2 cm in length was removed, inverted and scraped to remove the intima of the artery and approximately 50% of the media. The artery was reverted back to its correct orientation, cannulated on both ends and placed into an extracorporeal shunt in a baboon, thereby exposing the mechanically injured artery to baboon blood via the shunt. Just prior to opening of the shunt to the circulating blood, ^111In-labeled autologous platelets were injected intravenously into the animal. The level of platelet accumulation at the site of the injured artery was determined by real-time gamma camera imaging.
The injured arteries were measured continuously for 60 minutes. […] At a 1.0 mg/kg bolus injection, approximately 90% of platelet accumulation was inhibited at 1 hour post drug administration.

With “DEGR-Factor VIIa: Recombinant human Factor VIIa with its active site derivatized by Dansyl-L-Glu-Gly-Arg-chloromethyl Ketone (DEGRck)”, the Intima in experiment [1] is 0.438 mm2. For the same substance, the Media in experiment [1] stood at 0.329 mm2. In experiment [2] (1:1 molar ratio of DEGR-Factor VIIa:Factor VIIa), the “inhibition of the chromogenic activity” value is on record as “approximately 95%”. For the same substance, the OD405 entry is “.116” in experiment [2] (DEGR-Factor VIIa 1.56 nM co-incubated with 100 nM Factor VIIa); “.073” in experiment [2] (DEGR-Factor VIIa 6.25 nM co-incubated with 100 nM Factor VIIa); “.026” in experiment [2] (DEGR-Factor VIIa 25.00 nM co-incubated with 100 nM Factor VIIa); “.014” in experiment [2] (DEGR-Factor VIIa 100.00 nM co-incubated with 100 nM Factor VIIa); “.176” in experiment [2] (DEGR-Factor VIIa .39 nM co-incubated with 100 nM Factor VIIa). Further, in experiment [3] (baboon, 0.005 mg/kg bolus injection), the platelet accumulation result was “inhibited platelet accumulation”. Besides, the “inhibition of platelet accumulation” value in experiment [3] (baboon, 1.0 mg/kg bolus injection, 1 hour post drug administration) is recorded as “approximately 90%”. For the same substance, the “thrombus formation (platelet deposition)” value in experiment [3] (bolus injection, arteries measured over 60 minutes, versus saline-treated controls) was “significantly inhibited the development of platelet-rich thrombi”.
